Ten molecules from patent US20210069342A1 (LEGOCHEM BIOSCIENCES, published 2021) can be followed below.

The target of assay [1] is T1, recombinant human ROR1-His (Sino Biological, 13968-H08H) (human, UniProt Q01973 30-406).
T1 construct: extracellular domain; Bought protein; also called ROR1-HIS protein; not shown: His tag
As to the kind of experiment: BLI (Octet), ROR1-His on Anti-Penta-His or AR2G biosensor, IgG 30 to 0.021 nM, 1:1 fit. The method, then: A 96-well black microplate (greiner bio one) was mounted on a biosensor tray case, and 200 10×KB or DW was added to each of 8 wells. Then Anti Penta His biosensors or 8 AR2G biosensors (ForteBio, USA) were inserted to hydrate for 10 minutes. 600 of the assay samples were diluted 2-fold or 3-fold to the appropriate assay concentrations, using 1×KB or 10×KB to 30 to 0.021 nM. To immobilize the antigen, recombinant human ROR1-His (Sino Biological, 13968-H08H) was diluted to 1 /ML with 10×KB or Sodium Acetate pH5 buffer. Immobilization was fixed at a threshold of 0.3 nm in the loading step. The association assay was carried out for 3 to 10 minutes, and the dissociation assay was carried out for 20 minutes. According to the Octet program template, the buffer was placed in a new 96-well black microplate according to order. As Baseline1, 200 10×KB or DW was placed. Then 200 each of 1 /mL of the antigen to be loaded, the ROR1-HIS protein, was added. As Baseline2, 200 10×KB or 1×KB was placed. Then to each well 30 to 0.021 nM of the diluted antibody and 200 each of 10×KB buffer or 1×KB corresponding to a reference blank was added. The temperature of the test plate was fixed at 30° C. After all of the samples were introduced, the equipment was started, and after the assay was completed, results were uploaded to the Octet Analysis 90 software, with KD values analyzed through 1:1 fitting. By obtaining KD values through the Octet assay method, it was confirmed that the anti-ROR1 antibody had strong binding potential to ROR1 antigen.
Background: BLI is a label-free optical method that tracks binding on a fibre tip over time.

For assay [2], the target named is T2, human ROR1 expressed on the cell surface (human, UniProt Q01973 30-937).
T2 construct: whole, on cells; also called cell surface-expressed ROR1 antigen; ROR1 on JeKo-1, Mino, CHO-human ROR1, MC38-human ROR1 and other cancer cell lines
As to the kind of experiment: flow cytometry on MC38-human ROR1 cells, IgG titrated, FITC anti-human Fc detection, MFI ratio to 2nd Ab alone; log axis whose first tick is printed 0. An excerpt: (§1) For this experiment, using cell lines (FIG. 5 and FIG. 7, respectively) transiently (CHO-human ROR1, CHO-human ROR2, CHO-mouse ROR1) or stably (MC38-human ROR1) transfected with ROR1 gene to achieve artificial over-expression of ROR1 protein, an ROR1-expressing cell line (JeKo-1, Mino) (FIG. 6), a non ROR1-expressing cell line (MCF7) (FIG. 6) and a FACSCalibur (BD Biosciences) device was used to measure the degree to which anti-ROR1 antibody and ROR1 were bound, as follows. […] JeKo-1, Mino, CHO-human ROR1, CHO-mouse ROR1 and MC38-human ROR1 are all cell lines which express human ROR1 or mouse ROR1.
(§2) Specifically, after dissociating each cell line and washing in PBS, the number of cells was counted and adjusted to 2×10⁵ cells/200 PBS. Then the respective ROR1 monoclonal antibodies prepared in Embodiment 3 were diluted 5 times from 10 /mL or 10 /mL, then reacted for 1 hour at 4° C. After the reaction, the cells were washed in PBS, then FITC-marked constant region (Fc) specific antibody (Goat anti-human IgG FITC conjugate, Fc specific, Sigma, F9512, concentration 20 mg/ml) was suspended in 2 /1×10⁵ cells/200 PBS and reacted for 1 hour at 4° C. As for identification of the degree of expression of the transiently over-expressed human ROR1, human ROR2 and mouse ROR1, a commercially available FACS analysis antibody (anti-ROR1: R&D Systems, FAB 2000G, anti-ROR2: R&D, FAB20641P) was used. After reacting the cells were washed in PBS and analyzed using a FACSCalibur device. The negative control (2nd Ab) was only treated with FITC-marked constant region (Fc) specific antibody. The shifted readings for the respective experimental groups treated with ROR1 monoclonal antibody were compared against the shifted reading for the control group (MFI Ratio: MFI of anti-ROR1/MFI of 2nd Ab).

Assay [3] deals with T1, recombinant human ROR1-His (Sino …). The assay can be described thus: ELISA, wells coated with human ROR1 protein (sheet: 'human ROR1'; text: ROR1-Fc or ROR1-His), IgG titrated, HRP anti-Fab detection, OD (450-650nm). The protocol: (§3) Anti-ROR1 antibody antigen binding affinity was assessed using an ELISA-based solution binding assay. Specifically, a 96-well microtiter plate (Nunc-Immuno Plates), NUNC) was coated for 16 hours at 4° C. with the ROR1 protein described below at a concentration of 1 in PBS solution, and non-specific binding sites were blocked for 2 hours with 3% BSA (bovine serum albumin). Here, the ROR1 protein used was, in the case of human ROR1, the ROR1-Fc or recombinant human ROR1-His (Sino Biological, 13968-H08H) of Embodiment 1. The ROR1-His used in ELISA, as stated in the above sentence, was a protein from the Sino Biological company (13968-H08H), and the ROR1-His of Embodiment 1 or recombinant mouse ROR1 protein was used (Acrobiosystems, RO1-M5221-100 )
(§4) Subsequently, the anti-ROR1 antibodies prepared in Embodiment 3 were added at the concentrations stated in FIG. 2 to a 96-well microtiter plate, and binding capacity was analyzed using ELISA as follows. Specifically, after incubating for 2 hours, the plate was washed 5 times with PBS containing 0.05% Tween 20, then HRP-conjugated Fab multiclonal antibody reagent (Perce, 31414) was diluted to 1:10,000 and placed in the washed microtiter plate. After reacting for 1 hour at 37° C., the ROR1 antibodies bonded to the plate were detected. After the reaction, color development was performed using TMB (Tetramethylbenzidine, Sigma, T0440). The enzymatic reaction was stopped using 0.5 mol/L sulfuric acid, and absorbance at 450 nm and 650 nm was measured (450 nm-650 nm) using a micro plate reader (Molecular Device)
A general note: ELISA stands for enzyme-linked immunosorbent assay.

The target of assay [4] is T3, human ROR2 over-expressed on CHO cells (CHO-human ROR2) (human, UniProt Q01974 34-943).
T3 construct: whole, on cells; Negative control; also called family protein human ROR2
As to the kind of experiment: flow cytometry on CHO-S cells transiently over-expressing human ROR2, FITC anti-human Fc detection, MFI ratio to 2nd Ab alone.
Description: as §1, §2

In assay [5] the target is T4, recombinant mouse ROR1 protein (Acrobiosystems, RO1-M5221) (mouse, UniProt Q9Z139 30-403).
T4 construct: Bought protein; also called mouse ROR1 antigen
The assay can be described thus: ELISA, wells coated with recombinant mouse ROR1 protein, IgG titrated, HRP anti-Fab detection, OD (450-650nm). The protocol: as §3, §4

In assay [6] the target is T5, BCMA-Fc, a recombinant protein where the extracellular domain of human BCMA protein is linked to human Fc (human, UniProt Q02223 1-54).
T5 construct: extracellular domain; Negative control in panning and ELISA; also called negative control-Fc
T5 sequence (looked up): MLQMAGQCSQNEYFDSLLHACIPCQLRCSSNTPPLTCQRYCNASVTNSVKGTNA
The assay can be described thus: ELISA, wells coated with BCMA-Fc (negative control), monoclonal scFv supernatant, anti-HA HRP detection, OD (450-650nm). The method, then: Specifically, 100 ng per well of recombinant human ROR1-Fc prepared in Embodiment 1-1 or FBMA-Fc was placed in a 96-well microtiter plate (Nunc-Immuno Plate, NUNC, USA), which was coated overnight at 4° C. BCMA-Fc is the protein used as a negative control, a recombinant protein where the extracellular domain of human BCMA protein is linked to human Fc. 200 μL each of 3% BSA was placed in each well, and blocked for 2 hours at 37° C.
The monoclonal phage supernatant was prepared by mixing 1:1 with 3% BSA, and 100 μL each of this mixture was loaded into the wells and reacted for 2 hours at 37° C. After washing 5 times with 300 μL PBST, anti-HA HRP binding antibody was added, reacted for 1 hour at 37° C., then washed 5 times with PBST. 100 μL TMB (Tetramethylbenzidine, Sigma, T0440) was added for color development, and then 50 μL 1N H2SO₄ was added to stop the reaction. Absorbance was measured at 450 nm and 650 nm, and clones where the absorbance at 450 nm and 650 nm was […] when coated with 1 /mL ROR1 were screened (FIG. 1)

Numbering of substitutions follows the chain as printed.

T1 sequence (Q01973 30-406): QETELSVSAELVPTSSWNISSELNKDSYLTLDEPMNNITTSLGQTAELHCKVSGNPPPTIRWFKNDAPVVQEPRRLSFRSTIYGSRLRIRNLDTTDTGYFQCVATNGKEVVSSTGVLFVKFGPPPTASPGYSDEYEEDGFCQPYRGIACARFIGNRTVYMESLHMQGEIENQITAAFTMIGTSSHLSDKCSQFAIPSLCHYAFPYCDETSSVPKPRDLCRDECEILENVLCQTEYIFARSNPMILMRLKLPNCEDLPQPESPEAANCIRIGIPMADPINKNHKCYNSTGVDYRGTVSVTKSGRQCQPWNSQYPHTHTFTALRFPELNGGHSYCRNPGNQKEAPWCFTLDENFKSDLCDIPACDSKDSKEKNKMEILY
T3 sequence (Q01974 34-943): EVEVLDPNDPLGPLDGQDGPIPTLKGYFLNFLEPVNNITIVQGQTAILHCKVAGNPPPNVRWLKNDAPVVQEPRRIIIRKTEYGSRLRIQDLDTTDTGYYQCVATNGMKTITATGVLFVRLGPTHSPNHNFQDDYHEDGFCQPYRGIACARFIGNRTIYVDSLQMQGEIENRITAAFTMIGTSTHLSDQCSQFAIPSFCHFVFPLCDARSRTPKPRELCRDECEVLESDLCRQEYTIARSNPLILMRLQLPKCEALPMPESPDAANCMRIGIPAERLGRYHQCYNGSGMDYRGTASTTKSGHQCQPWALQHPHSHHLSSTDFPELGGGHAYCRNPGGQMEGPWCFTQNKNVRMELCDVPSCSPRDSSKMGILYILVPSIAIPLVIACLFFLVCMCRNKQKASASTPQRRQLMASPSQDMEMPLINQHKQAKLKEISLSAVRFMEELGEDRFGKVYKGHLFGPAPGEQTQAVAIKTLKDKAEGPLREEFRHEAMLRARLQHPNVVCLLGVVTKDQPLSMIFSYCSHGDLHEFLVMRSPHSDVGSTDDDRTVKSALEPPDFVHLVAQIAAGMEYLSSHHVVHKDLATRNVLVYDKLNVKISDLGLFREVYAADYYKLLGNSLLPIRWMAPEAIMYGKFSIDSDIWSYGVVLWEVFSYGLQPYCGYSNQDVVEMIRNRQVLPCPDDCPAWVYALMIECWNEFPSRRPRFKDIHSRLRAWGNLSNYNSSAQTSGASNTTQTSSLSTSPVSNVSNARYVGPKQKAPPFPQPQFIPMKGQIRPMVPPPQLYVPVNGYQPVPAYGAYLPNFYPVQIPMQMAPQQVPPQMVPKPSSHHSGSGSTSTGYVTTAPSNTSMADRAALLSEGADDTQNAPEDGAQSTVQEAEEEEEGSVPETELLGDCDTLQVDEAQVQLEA
T4 sequence (Q9Z139 30-403 limits assumed): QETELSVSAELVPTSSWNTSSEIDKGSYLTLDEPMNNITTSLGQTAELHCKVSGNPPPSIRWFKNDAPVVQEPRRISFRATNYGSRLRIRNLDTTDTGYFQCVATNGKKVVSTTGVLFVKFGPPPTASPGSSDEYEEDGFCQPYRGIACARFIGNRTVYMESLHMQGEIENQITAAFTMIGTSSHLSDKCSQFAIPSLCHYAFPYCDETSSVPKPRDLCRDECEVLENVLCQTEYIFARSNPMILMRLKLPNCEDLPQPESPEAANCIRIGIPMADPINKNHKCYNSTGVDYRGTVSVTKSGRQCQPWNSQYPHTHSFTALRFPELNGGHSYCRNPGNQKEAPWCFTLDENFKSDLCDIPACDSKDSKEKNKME
T2 sequence (Q01973 30-937): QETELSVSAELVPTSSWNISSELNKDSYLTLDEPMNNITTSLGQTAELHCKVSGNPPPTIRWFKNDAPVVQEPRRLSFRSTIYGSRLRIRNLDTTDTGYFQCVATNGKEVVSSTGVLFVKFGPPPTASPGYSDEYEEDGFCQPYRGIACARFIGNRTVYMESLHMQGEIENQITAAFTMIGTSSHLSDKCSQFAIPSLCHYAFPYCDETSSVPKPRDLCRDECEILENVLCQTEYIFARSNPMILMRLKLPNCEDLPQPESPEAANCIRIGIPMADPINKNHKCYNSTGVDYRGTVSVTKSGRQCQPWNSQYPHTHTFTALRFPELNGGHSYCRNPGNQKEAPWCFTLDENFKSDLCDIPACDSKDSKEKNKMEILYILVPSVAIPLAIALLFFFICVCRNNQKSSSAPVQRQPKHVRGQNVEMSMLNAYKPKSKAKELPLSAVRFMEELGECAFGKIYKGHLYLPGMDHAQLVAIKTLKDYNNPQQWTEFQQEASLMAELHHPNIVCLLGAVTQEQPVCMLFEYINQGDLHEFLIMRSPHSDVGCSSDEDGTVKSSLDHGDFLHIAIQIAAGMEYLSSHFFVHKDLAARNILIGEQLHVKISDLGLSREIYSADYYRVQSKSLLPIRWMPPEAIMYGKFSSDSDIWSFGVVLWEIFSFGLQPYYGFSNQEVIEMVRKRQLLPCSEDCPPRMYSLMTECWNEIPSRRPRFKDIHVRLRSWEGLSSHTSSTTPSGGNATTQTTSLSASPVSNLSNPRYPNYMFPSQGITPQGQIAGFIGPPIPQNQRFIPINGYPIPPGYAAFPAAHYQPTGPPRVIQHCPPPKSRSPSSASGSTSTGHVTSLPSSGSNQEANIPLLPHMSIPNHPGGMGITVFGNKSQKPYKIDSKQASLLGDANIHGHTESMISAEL

B1: anti-ROR1 IgG antibody AB4 (antibody, V domains shown)
VH: EVQLLESGGGLVQPGGSLRLSCAASGFTFSSYDMSWVRQAPGKGLEWVSWISPDSGSIYYADSVKGRFTISRDNSKNTLYLQMNSLRAEDTAVYYCARPTGRFDYWGQGTLVTVSS
VL: QSVLTQPPSASGTPGQRVTISCSGSSSNIGNNNVNWYQQLPGTAPKLLIYYDNKRPSGVPDRFSGSKSGTSASLAISGLRSEDEADYYCGTWDASLSGYVFGGGTKLTVLG
notes: Full IgG form (human IgG1 constant region, lambda light chain), expressed in CHO-S cells
As for B1, in assay [1], the Kd (usually the concentration at which binding is half-saturated) is 0.0639 nM; the koff (as a rule, a measure of how fast the partners let go of each other) is 0.000116 s⁻¹; the kon (commonly the second-order rate constant of association) was determined as 1.81e+06 M⁻¹ s⁻¹. Moreover, the EC50 (read off the curve) (as a rule, the concentration at which the effect is half-maximal) in assay [2] was around 0.1 µg/mL. Also, the “EC50 (read off the curve)” value in assay [3] was around 0.2 nM. Further, the binding result in assay [4] is “no binding”. The “EC50 (read off the curve)” value in assay [5] is around 0.2 nM.

B2: anti-ROR1 monoclonal phage antibody A2F2 (soluble scFv) (scFv, V domains shown)
VH: EVQLLESGGGLVQPGGSLRLSCAASGFTFSDYYMSWVRQAPGKGLEWVSSISPDGSNTYYADSVKGRFTISRDNSKNTLYLQMNSLRAEDTAVYYCAKNLRAFDYWGQGTLVTVSS
VL: B1 VL with S9P, N31S, N33T, N35Y, Y51A, D52N, N53S, K54Q, T91S, A94Y
notes: Tested as soluble scFv in culture supernatant, detected through an HA tag
Regarding B2, the binding result in assay [6] is reported as “no binding”.

B3: anti-ROR1 monoclonal phage antibody DG6 (soluble scFv) (scFv, V domains shown)
VH: EVQLLESGGGLVQPGGSLRLSCAASGFTFSDYDMSWVRQAPGKGLEWVSVISPDGGSIYYADSVKGRFTISRDNSKNTLYLQMNSLRAEDTAVYYCARDVVECNMNPCSYDNAMDVWGQGTLVTVSS
VL: B1 VL with N31S, N33Y, N35S, Y51D, N53S, K54H, T91A, A94D
notes: as for B2
Consider B3, for which the binding result in assay [6] is on record as “no binding”.

B4: anti-ROR1 monoclonal phage antibody CC9 (soluble scFv) (scFv, V domains shown)
VH: EVQLLESGGGLVQPGGSLRLSCAASGFTFSSYDMSWVRQAPGKGLEWVSGISHGSGNKYYADSVKGRFTISRDNSKNTLYLQMNSLRAEDTAVYYCAKRLSLRRRPSYYSDNAMDVWGQGTLVTVSS
VL: B1 VL with S23T, N33A, N53S, K54N, T91A, A94D
notes: as for B2
As to B4, the binding result in assay [6] was “no binding”.

B5: anti-ROR1 monoclonal phage antibody BA6 (soluble scFv) (scFv, V domains shown)
VH: EVQLLESGGGLVQPGGSLRLSCAASGFTFSNYDMSWVRQAPGKGLEWVSAIYHSGSSKYYADSVKGRFTISRDNSKNTLYLQMNSLRAEDTAVYYCARGGNGAWDTGFDYWGQGTLVTVSS
VL: B1 VL with N31S, N33D, N35S, K54N, T91A, A94D
notes: as for B2
B5: the binding result in assay [6] is reported as “no binding”.

B6: anti-ROR1 monoclonal phage antibody C2E3 (soluble scFv) (scFv, V domains shown)
VH: EVQLLESGGGLVQPGGSLRLSCAASGFTFSNYAMSWVRQAPGKGLEWVSSISHNSGSTYYADSVKGRFTISRDNSKNTLYLQMNSLRAEDTAVYYCAKFISARKSLGRSYSNGMDVWGQGTLVTVSS
VL: B1 VL with S23T, N31S, N33D, N35T, Y51A, N53S, A94Y
notes: as for B2
With B6, the binding result in assay [6] is “no binding”.

B7: anti-ROR1 monoclonal phage antibody D2B12 (soluble scFv) (scFv, V domains shown)
VH: EVQLLESGGGLVQPGGSLRLSCAASGFTFSNYDMSWVRQAPGKGLEWVSSISPSSGSSIYYADSVKGRFTISRDNSKNTLYLQMNSLRAEDTAVYYCAKAPGWCQAPSCYYDNAMDVWGQGTLVTVSS
VL: B1 VL with N33D, N35S, Y51D, N53S, K54Q, T91A, A94D
notes: as for B2
For the molecule B7, the binding result in assay [6] is reported as “no binding”.

B8: anti-ROR1 monoclonal phage antibody AB4 (soluble scFv) (scFv, V domains shown)
VH: B1 VH
VL: B1 VL
notes: as for B2
Take B8: in assay [6], the binding result is reported as “no binding”.

B9: anti-ROR1 IgG antibody DG6 (antibody, V domains shown)
VH: B3 VH
VL: B1 VL with N31S, N33Y, N35S, Y51D, N53S, K54H, T91A, A94D
notes: as for B1
Consider B9, for which, in assay [1], the Kd amounted to 0.152 nM, the koff came out at 0.000338 s⁻¹ and the kon worked out at 2.23e+06 M⁻¹ s⁻¹. The “EC50 (read off the curve)” value in assay [3] is around 0.1 nM. For the same molecule, in assay [4], the binding result is given as “no binding”. In addition, the half-maximal effective concentration (EC50 (read off the curve)) in assay [5] is around 0.1 nM.

B10: anti-ROR1 monoclonal phage antibody A2F3 (soluble scFv) (scFv, V domains shown)
VH: B1 VH with D54G, S55G, I58K, P99V, T100N
VL: B1 VL with N35S, Y51A, N53S, K54H, G90A, A94Y
notes: as for B2
Regarding B10, the binding result in assay [6] was “no binding”.
